What was measured:
[1] = target: SARS-CoV-2 spike ectodomain with the wild-type sequence (S-WT), aa 15-1,213, with C-terminal thrombi (SARS-CoV-2 | bacteriophage T4) (UniProt P0DTC2); test: AUC
[2] = target: SARS-CoV-2 spike ectodomain, prefusion trimer-stabilized form (S-2P), aa 15-1,213, with C-terminal t (SARS-CoV-2 | bacteriophage T4) (UniProt P0DTC2); test: cryo-EM structure

Row | Substance | stoichiometry N [1] | stoichiometry N [2]
1 | SARS-CoV-2 spike ectodomain with the wild-type sequence (S-WT), aa 15-1,213, with C-terminal thrombi (from UniProt P0DTC2 15-1213) (domain or fragment) | 3 | –
2 | SARS-CoV-2 spike ectodomain, prefusion trimer-stabilized form (S-2P), aa 15-1,213, with C-terminal t (from UniProt P0DTC2 15-1213) (domain or fragment) | – | 3

From article PMC7534368
